For the data set, the system named is Bacillus subtilis DB104 (SP-AmyQ fusion secretion). The experiment in a line: AmyQ secretion efficiency, weighted average sort bin (1 = best secretion, 10 = worst) (bin number (weighted average, 1-10)); higher = lower secretion efficiency. An outline of the steps: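 Occupied alginate beads were sorted by large-particle flow cytometry into 10 equally populated bins according to green/red fluorescence ratio. Each bead (~65 nL) held fluorescein-starch and about 0.3 cells of a B. subtilis DB104 library expressing mature AmyQ fused to designed signal peptides from the amyE locus, and beads were grown about 13 h at room temperature and stained with nile red before sorting. Bin amplicons were Illumina-sequenced, and the secretion score is the read-frequency-weighted average bin number, normalised to beads per bin, excluding low-abundance sequences.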

The values below come from the supplement of paper PMC9942255.

MKQGKFSVFLILLLMLTLVVRRRKKRKAEAASS showed an AmyQ secretion efficiency of 7.96.

MNKFLKSNFRFRRKRKKGISLLASSNFIKASND registered an AmyQ secretion efficiency of 8.33.

Sequence MKLSVKIAGVLTVAAAAMTAKMYATSKGN displayed an AmyQ secretion efficiency of 6.78.

For MKKWMAGLFLAAAVLLCLMVPQQSQGASS, the AmyQ secretion efficiency was determined as 5.65.

MFNRLFRVCFLAALIMAFTLPNSAYAQKP returned an AmyQ secretion efficiency of 2.14.

The sequence MHLIRAAGAVCLAVVLIAGCRFGSIIVSAEGENT gave an AmyQ secretion efficiency of 5.81.

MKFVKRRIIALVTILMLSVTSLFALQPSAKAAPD gave an AmyQ secretion efficiency of 2.11.

Turning to MKRIRIPMTLALSAALIIALLSFASAEEN, the AmyQ secretion efficiency was 5.6.

Turning to MNFKKTVVSALSISALALEEEGVASAHEI, the AmyQ secretion efficiency was found to be 7.3.

As for MARRRRRKAAVIVIAALITFNVRNASPG, the AmyQ secretion efficiency is 6.9.

Take MKKGIIRFLLVSFVLFSTGITGVQAAPA: the AmyQ secretion efficiency amounted to 2.37.

MKQIMIFLTSFMLLAMTGQTTLAKDV gave an AmyQ secretion efficiency of 3.1.

Turning to MKRLLSTLLIGIMLLEDEPSAFAKQD, the AmyQ secretion efficiency turned out to be 1.9.

On to MKKKQVMLALTAAAGLGLTALHSAPAAKIAPL, for which the AmyQ secretion efficiency was determined as 6.05.

MKKKQVSHAIIISVMLSFVIAVFHTIHASERKR gave an AmyQ secretion efficiency of 7.08.

Sequence MKKLVLCVSILAVILSGVTVALTQLS yielded an AmyQ secretion efficiency of 3.8.

Take MTKRGIQAFAGGIILATAVLAAVFKKTKKDQAAAV: the AmyQ secretion efficiency amounted to 7.92.

On to MKWMCSICCAAVLLAGGAKQAEAV, for which the AmyQ secretion efficiency came out at 2.68.

With MGMKRVITCVMAASLTLGSLLPAGYATAKED, the AmyQ secretion efficiency came to 6.01.

In turn, MRFTKVVGFLSVLGLAAVFPLTCQAEKA displayed an AmyQ secretion efficiency of 2.19.

In turn, MGGGFSILIMMTGLLFGLTSPAFAAEK registered an AmyQ secretion efficiency of 3.63.

In turn, MKKIGLLFMLCLAALFTIGFPAQQADAAPR came in with an AmyQ secretion efficiency of 1.25.

MKRRRRRFILVLSFLSIIVAYPIQTNASPM returned an AmyQ secretion efficiency of 2.07.

Regarding MRSYIKVLTMCFLGLILFVPTILADNS, the AmyQ secretion efficiency turned out to be 2.6.

In turn, MKFVKRRIIALVTILMLSVTSLFAKKRRRAKAAEH registered an AmyQ secretion efficiency of 7.85.

As for MGLGLLLSVAVAASFMSLSISLPGVQAAEG, the AmyQ secretion efficiency was found to be 2.94.

As to MMIKQCVICLSLLVFGTTAVHAEET, the AmyQ secretion efficiency was 1.9.

Take MKKRITYSLLALLAVVAFAFTRSSKAKAAEA: the AmyQ secretion efficiency stood at 3.67.

Consider MTKLKMLSMLTVMIASLFIFSSQALLVQY, for which the AmyQ secretion efficiency is 6.07.

MKKVMLATALFLGLTPANAADL returned an AmyQ secretion efficiency of 8.14.

The sequence MKRLTLVCSIVFILFILFYDKDEASAKTA had an AmyQ secretion efficiency of 1.77.

As for MKVPKTMLLSTAAGLLLSLTATSDSAHYV, the AmyQ secretion efficiency came to 6.94.

Sequence MKKIWIGMLAAAMVPKVSLADAA showed an AmyQ secretion efficiency of 5.25.

Consider MKSKGSIMACKKKKSFTITTFINTETISAFSN, for which the AmyQ secretion efficiency is 7.29.

In the case of MKLAKRVSALTPSTTLAITDKAKEL, the AmyQ secretion efficiency was 7.38.

Sequence MNKFLKSNFRFKRAAALGISLLASSNFIKASND came in with an AmyQ secretion efficiency of 3.29.

Take MKLKSKLLLSCLALSTVFVATTIANSPTH: the AmyQ secretion efficiency came to 3.78.

As to MNLRKILLSSALSLGMLVSAAPGLATSS, the AmyQ secretion efficiency came to 3.12.

With MLSMNLWISLLFALTLIFTMAFSNMSAQAAGK, the AmyQ secretion efficiency was 1.93.

Turning to MKRIRIPMTLALGAALTIAPLSFHSAEEN, the AmyQ secretion efficiency amounted to 7.02.

Regarding MKVLLSALLLLLFAFEPSASDKKL, the AmyQ secretion efficiency was found to be 6.18.

In turn, MKKLVLCVSILAVILSGVALVQLS returned an AmyQ secretion efficiency of 5.7.

Turning to MNFKKTVVSALSISALALRKRRKRASAHEI, the AmyQ secretion efficiency amounted to 7.78.

In the case of MKWMCSICCAAVLLAGGAFQAEAV, the AmyQ secretion efficiency was found to be 4.41.

As to MKKAFILSAAAAVGLFTFIAVSVASAKEL, the AmyQ secretion efficiency worked out at 3.67.

The sequence MKKGIIRFLLVSFVLFFALFAFIAFGGGTTVQAAPA came in with an AmyQ secretion efficiency of 1.86.

The sequence MRFTKKKTFLSVLGLAAVFPLTAQAEKA had an AmyQ secretion efficiency of 3.64.

Sequence MKKWIYVVLVLSIAGIGGFSLHAASS showed an AmyQ secretion efficiency of 6.87.

Consider MKNMSCKLVVSVTLFFSFLTIGPLAHCQNS, for which the AmyQ secretion efficiency came out at 1.91.

The sequence MRKRRTIFAFLTGLMMFGTITAASASPD registered an AmyQ secretion efficiency of 4.74.

With MKKWMAGLFLAAAVLLCLKRRRKRIQGASS, the AmyQ secretion efficiency came out at 6.89.

Take MKTLRTLCVLMILSGVIFFGLKIDRKDI: the AmyQ secretion efficiency came out at 5.46.

Take MKKQIKKKRKKVVLGSTLFAGAASAQSI: the AmyQ secretion efficiency is 7.55.

In the case of MKRLFMKSSKRLFAVVFVFAVKGAPAKAETH, the AmyQ secretion efficiency was 7.81.

Regarding MKKAFLVFLSVVLVTTVFLVKQQESVAQNKQL, the AmyQ secretion efficiency turned out to be 2.89.

MKLSVKIAGVLTVAAAAMTAKMYATMKGN displayed an AmyQ secretion efficiency of 6.84.

As for MKLAKRNFMISMVSALTPSTTLAITAKAKEL, the AmyQ secretion efficiency came out at 7.41.

Sequence MTMLRKIIGWILLLCIIPLFAFTVIASGAPV returned an AmyQ secretion efficiency of 6.61.

MKKAFLVFLSVVLVTTVFLSKQQESVAQAKQL gave an AmyQ secretion efficiency of 1.98.

Turning to MFNRLFRVCFLAALIMAFTLPNSVYAKKR, the AmyQ secretion efficiency was 3.37.

MKKVLMAFIICLSLILSVLAAPPSGAKQESV returned an AmyQ secretion efficiency of 2.57.

MKSKWMSGLLLVAVGFSFTQVMVHLGET showed an AmyQ secretion efficiency of 7.17.

As for MLKKIALTLCPAIVGSLLFFTRKKASAHVS, the AmyQ secretion efficiency came out at 7.46.

In turn, MRNLTKTSLLLAGLCTAAQMVFVTHSSAEES came in with an AmyQ secretion efficiency of 4.02.

In turn, MKKKQVMTLNSSLALTAAAGLGLTALHSAPAAKAAPL gave an AmyQ secretion efficiency of 4.06.

Consider MAAQTDYKKQVVGILLSLAFVLFVFSPSERHE, for which the AmyQ secretion efficiency is 5.34.

The sequence MMTTIFAFLTGLMMFGTITAASASPD gave an AmyQ secretion efficiency of 4.48.

MGLGKKLSVAVAASFMSLSISLPGVQVAEG returned an AmyQ secretion efficiency of 3.6.

For the sequence MKSCKQLIVCSLAAILLLIPSVSFAKRK, the AmyQ secretion efficiency turned out to be 2.42.

Regarding MMKKGLLAGALTATVLFIGTCAVDVPGIISPKTAEAASQ, the AmyQ secretion efficiency turned out to be 1.04.

As to MFKKHTISLLIIFLLASAVLAKPIECHTV, the AmyQ secretion efficiency stood at 5.04.

As for MRKKRLLTIYIMLLGLIAWFPGAAQAEEK, the AmyQ secretion efficiency is 3.47.

Regarding MKKKQVMLALTAAAGLGLTALHSAPAAKADDD, the AmyQ secretion efficiency was 5.2.

As to MGLGKKLSVAVAASFMSLSISLPGIQAAEG, the AmyQ secretion efficiency came to 1.56.

In turn, MKKLRKKKIIGLLTVSIASPSFAAEK returned an AmyQ secretion efficiency of 7.35.

Sequence MMKKLFHSTLIVLLFFSFFGVQPGHAKKQ showed an AmyQ secretion efficiency of 2.96.

Take MVKKWYYQSKSSLSVLSTFTYSASAVGV: the AmyQ secretion efficiency was found to be 5.88.

As for MRSKKLWISLLFALTLITFTMAFSNMSAQAAGK, the AmyQ secretion efficiency amounted to 3.27.

MLCVMMLLFSAIASFPVSAQRKDQ gave an AmyQ secretion efficiency of 6.75.

Take MKKAAAVLLSLGLVFGFSYGAGHVREAKTK: the AmyQ secretion efficiency amounted to 7.77.

The sequence MNKPTKLKKKKALAAGMTAAAAGGAGTIHAQQP showed an AmyQ secretion efficiency of 8.12.

Sequence MKLSVKIAGVLTVAAAAMTAKMYATIKGN gave an AmyQ secretion efficiency of 6.84.

In turn, MKRLLVSLRVWMPDRKTAAAAVY gave an AmyQ secretion efficiency of 6.76.

MTKKAWFLPLVCVLLIDEDLAPAASASAQTT: the AmyQ secretion efficiency turned out to be 2.58.

MRPVFPLILSAVLFLSCFRASASKR: the AmyQ secretion efficiency came out at 6.81.

For MKKRLIAPMLKRKKRRAFFAMSGSAQAAAY, the AmyQ secretion efficiency came to 7.88.

On to MRPVFPLILSAVLFLSCFFGARQTESFASASKR, for which the AmyQ secretion efficiency worked out at 4.97.

The sequence MKKMLGKLLITAGILVFFAVVVKDVFAAGL displayed an AmyQ secretion efficiency of 7.15.

The sequence MKKWIYVVLVLSIAGIGGFSVHAAED displayed an AmyQ secretion efficiency of 5.68.

In the case of MKWMCSICCAAVLLAGGAAQAAAD, the AmyQ secretion efficiency worked out at 4.17.

MKYCQKSISRFLVSLIIGTFVISVPFMANAQSD gave an AmyQ secretion efficiency of 3.17.

Consider MKWMCMICCAAVLLAMIGAAQAEAV, for which the AmyQ secretion efficiency came to 3.44.

With MRKRKILLSSALSLGMLVSAAPVLATSS, the AmyQ secretion efficiency was 2.04.

Consider MRFTKFMSIVVGFLSVLGLAAVFPLTAQAEKA, for which the AmyQ secretion efficiency came to 2.72.

MIAYFGKCLLLVTIMFLGVLFGMQQVNHG showed an AmyQ secretion efficiency of 6.78.

Consider MKKVLMAFIICLSLILTLTSVIFISVLAAPPSGAKAESV, for which the AmyQ secretion efficiency came out at 2.47.

The sequence MSMVMLATALFLGLTPAGANAADL gave an AmyQ secretion efficiency of 5.37.

Sequence MSSMTCKLVVSVTLFFSFLTIGPLAHAQNS had an AmyQ secretion efficiency of 1.57.

As to MLKKKWMVGLLAGCLAAGGFSYNAFRTEN, the AmyQ secretion efficiency came to 5.68.

MITAAAVLLSLGLVFGFSYGAGHVAEAKTK registered an AmyQ secretion efficiency of 3.09.

MRPVFPLILSAVLFLSCFFGARQTEASFSKR displayed an AmyQ secretion efficiency of 2.95.

The sequence MRPVFPLILSAVLFLSCFFGARQTEASTSKR yielded an AmyQ secretion efficiency of 2.25.

The sequence MTKWIVLFLVLIAAAISIFVYVSTGSEK showed an AmyQ secretion efficiency of 2.48.

In turn, MKLAKRVSALTPSTTLAIEEEEAKAKEL had an AmyQ secretion efficiency of 7.01.

MKRFSTAYLKKRKLCSAAVFLIGAPSRALGAEV showed an AmyQ secretion efficiency of 6.51.

MRKKCSSMSFTSVCLWILVLLLSCLSGKSAYAATS: the AmyQ secretion efficiency is 3.

The sequence MKKGIIRFLLVSFVLFFALSTGITGVQLAPA had an AmyQ secretion efficiency of 5.59.

MFQFAITLSVLCALILLVPTLLVIPFQHNKEAGASV had an AmyQ secretion efficiency of 6.31.

In turn, MKKRITYSLLALLAVVAFAFTDSSAAKAAEA registered an AmyQ secretion efficiency of 2.68.
